Legend:
[1] = molecular target: T1, Integrin alpha4beta1 on Jurkat cells (clone E6-1) (Homo sapiens, UniProt P13612;P05556 P13612:34-1032,P05556:21-798); assay: competition; 50% block of 100 nM VCAM-1 binding to Jurkat cells; settings: tags: endogenous, ATCC cell line; label: biotin, FAM or Cy5
Protocol: CS1 peptide and VCAM-1 competition. For competition studies involving the CS1 peptide, a Tris-based wash buffer comprised of TBS (Fisher) supplemented with 4.5 g/L glucose, 5.5 mM MgCl², 0.9 mM CaCl², and 10 mM MnCl² was used instead of the normal DPBS-based wash buffer described above. Mn²⁺ has previously been described to support α4β1 binding to the fibronectin CS1 peptide (Masumoto and Hemler. (1993) Journal of Biological Chemistry, 268, 228-234), and as MnCl² precipitates in DPBS, a Tris-based wash buffer was thus required. Peptide stocks were prepared fresh in the Tris-based wash buffer at 20 mM prior to the competition studies and the exact concentration was measured using a QuantTag Biotin Quantification Kit (Vector Labs of Newark, CA). Live/dead and aptamer staining were carried out as described above, except cells were pre-blocked with varying concentrations of the SCR-b or CS1-b peptide in Tris-based wash buffer supplemented with 1% BSA (w/v) and 0.1 mg/mL yeast tRNA for 30 min at room temperature prior to spiking in aptamer and incubating for another 30 min at 4° C. As Tris can neutralize PFA, cells were resuspended in regular wash buffer 1% BSA with 0.5% PFA after washing before analyzing on the flow cytometer. […]

[2] = molecular target: T2, Integrin alpha4beta1 (VLA-4, CD49d/CD29), recombinant heterodimer (Homo sapiens, UniProt P13612;P05556 P13612:34-977,P05556:21-728); assay: BLI; 25 C, immobilised biotin-aptamer; settings: tags: His-tag; ACROBiosystems IT1-H52W1; label: biotin, FAM or Cy5
T2 sequence (P13612 34-977, chain 1 of 2): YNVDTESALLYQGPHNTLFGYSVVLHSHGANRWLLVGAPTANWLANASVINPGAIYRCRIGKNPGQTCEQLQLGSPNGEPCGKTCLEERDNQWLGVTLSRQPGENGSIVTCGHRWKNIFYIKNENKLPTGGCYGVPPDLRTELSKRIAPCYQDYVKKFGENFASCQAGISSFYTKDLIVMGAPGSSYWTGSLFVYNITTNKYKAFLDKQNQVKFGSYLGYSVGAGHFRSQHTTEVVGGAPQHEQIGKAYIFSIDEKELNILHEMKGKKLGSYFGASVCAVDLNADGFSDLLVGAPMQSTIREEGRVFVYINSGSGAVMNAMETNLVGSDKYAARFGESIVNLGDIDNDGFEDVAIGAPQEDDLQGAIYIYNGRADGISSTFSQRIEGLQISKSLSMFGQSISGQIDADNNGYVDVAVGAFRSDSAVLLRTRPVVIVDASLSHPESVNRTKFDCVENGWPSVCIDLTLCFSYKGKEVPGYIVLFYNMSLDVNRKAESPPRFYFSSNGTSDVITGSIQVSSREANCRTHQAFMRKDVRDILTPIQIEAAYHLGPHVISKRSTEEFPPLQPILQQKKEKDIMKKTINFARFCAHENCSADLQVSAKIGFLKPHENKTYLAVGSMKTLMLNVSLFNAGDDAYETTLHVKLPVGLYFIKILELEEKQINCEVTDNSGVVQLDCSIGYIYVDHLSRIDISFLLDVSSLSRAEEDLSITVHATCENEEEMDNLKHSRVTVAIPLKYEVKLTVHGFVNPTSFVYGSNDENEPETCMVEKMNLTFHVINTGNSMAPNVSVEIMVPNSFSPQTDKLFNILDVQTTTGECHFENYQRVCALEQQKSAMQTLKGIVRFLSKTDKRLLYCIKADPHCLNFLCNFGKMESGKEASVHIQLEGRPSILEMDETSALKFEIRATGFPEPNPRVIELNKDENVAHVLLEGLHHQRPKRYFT
T2 sequence (P05556 21-728, chain 2 of 2): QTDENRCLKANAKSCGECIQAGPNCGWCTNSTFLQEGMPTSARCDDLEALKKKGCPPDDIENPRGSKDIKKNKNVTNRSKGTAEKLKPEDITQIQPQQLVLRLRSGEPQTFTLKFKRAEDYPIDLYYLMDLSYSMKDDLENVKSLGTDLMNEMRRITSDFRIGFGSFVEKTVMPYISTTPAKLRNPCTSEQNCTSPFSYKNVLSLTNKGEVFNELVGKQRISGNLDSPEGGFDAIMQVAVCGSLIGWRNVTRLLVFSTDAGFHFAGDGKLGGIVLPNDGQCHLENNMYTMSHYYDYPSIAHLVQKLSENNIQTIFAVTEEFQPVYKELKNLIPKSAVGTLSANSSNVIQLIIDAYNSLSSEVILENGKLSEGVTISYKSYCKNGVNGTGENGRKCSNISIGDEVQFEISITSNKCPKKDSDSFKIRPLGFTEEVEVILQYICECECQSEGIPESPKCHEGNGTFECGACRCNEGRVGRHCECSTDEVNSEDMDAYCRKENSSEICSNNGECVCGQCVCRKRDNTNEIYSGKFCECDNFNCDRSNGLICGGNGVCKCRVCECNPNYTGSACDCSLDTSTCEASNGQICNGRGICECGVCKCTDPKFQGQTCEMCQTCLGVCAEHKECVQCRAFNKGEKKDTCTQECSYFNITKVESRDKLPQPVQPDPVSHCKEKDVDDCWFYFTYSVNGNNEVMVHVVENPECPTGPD
Protocol: (§1) Bio-layer interferometry. BLI studies were performed on an Octet RED96 instrument (Sartorius of Göttingen, Germany) using streptavidin biosensors (Sartorius) as previously described (Cheng et al. (2022) J Am Chem Soc, 144, 13851-64). Briefly, wash buffer supplemented with 1% BSA, 0.1 mg/mL yeast tRNA, 0.1 mg/mL salmon sperm DNA, and 0.01% Tween-20 (Sigma) was used as the sample buffer for all steps. All steps were performed at 25° C. with sample agitation at 1000 rpm. Biosensors were allowed to equilibrate in buffer for at least 10 min before loading. For sensor loading, 50 nM biotinylated aptamers were loaded until a 0.5 nm threshold before performing rinse and baseline steps in buffer alone for 100 s each. […] Kinetic constants were calculated for datasets with several analyte concentrations by conducting a global fit of the association and dissociation curves to a 1:1 ligand binding model. The quality of each fit was evaluated using R2 and χ2 values, which are listed in Table 6 for the appropriate datasets along with the calculated kinetic constants.
(§2) Table 6 lists BLI measured affinity kinetics of immobilized HR7A1, HR7A1.Tr1, and HR7A1.Tr2 aptamer binding to recombinant α4β1 protein. […] Values were calculated by performing a global fit of the binding curve data in FIG. 2B to a 1:1 binding model. […] The goodness of fit was evaluated by a reduced chi-square (χ2) and a R2 value approaching 1.

[3] = molecular target: T1, Integrin alpha4beta1 on Jurkat cells …; assay: competition; 50% displacement of 20 nM Cy5-Sgc4f on Jurkat cells; settings: tags: endogenous, ATCC cell line; label: biotin, FAM or Cy5; motif on top of a stem formed by flanking constant regions (predicted)
Protocol: (§3) Aptamer binding studies. While suspension H9, Jurkat, Raji, and K562 cells were harvested normally, adherent B16F10 cells were non-enzymatically dissociated with Versene (Gibco) prior to binding studies to prevent possible enzymatic cleavage of the α4β1 integrin that would affect aptamer binding. Once harvested, cells (2×10⁵) were pre-stained with Zombie Violet in DPBS for 15 min at room temperature, washed once with wash buffer supplemented with 1% BSA, and incubated with 100 μL folded FAM-labeled ssDNA pools or FAM/Cy5-labeled individual aptamers for 30 min at 4° C. in binding buffer at the indicated concentrations. For antibody co-staining, antibodies were added to the incubation with aptamers. For competitive binding studies, unique aptamers with different fluorescent labels were co-incubated on cells at different concentrations. Cells were then washed twice with 200 μL wash buffer 1% BSA to remove excess staining reagent. If biotinylated aptamers were used for primary staining, cells received a secondary stain with 100 μL fluorescently labeled streptavidin in wash buffer 1% BSA for 20 min at 4° C. and then washed twice as before. Lastly, stained cells were lightly fixed in 200 μL wash buffer 1% BSA with 0.1-0.5% perfluoroalkoxy alkane (PFA) before immediate analysis via flow cytometry as described above. […]

[4] = molecular target: Integrin alpha4beta1 on B16F10 melanoma cells (Mus musculus, UniProt Q00651;P09055 Q00651:41-1039,P09055:21-798); assay: flow; apparent, 4 C; settings: tags: endogenous, ATCC cell line; label: biotin, FAM or Cy5; motif on top of a stem formed by flanking constant regions (predicted)
Protocol: as §3, with “reagent.” for “reagent. If biotinylated aptamers were used for primary staining, cells received a secondary stain with 100 μL fluorescently labeled streptavidin in wash buffer 1% BSA for 20 min at 4° C. and then washed twice as before. Lastly, stained cells were lightly fixed in 200 μL wash buffer 1% BSA with 0.1-0.5% perfluoroalkoxy alkane (PFA) before immediate analysis via flow cytometry as described above.”
FIGS. 16A, 16B illustrate that HR7A1 binds mouse α4β1. […] (16B) Flow cytometry binding curves of Cy5-labeled CD8.A3t, HR7A1, and Sgc4f to B16F10 cells, as determined by MFI. […] KD values were calculated by averaging the individual regression values of the independent experiments. […]

[5] = molecular target: T2, Integrin alpha4beta1 (VLA-4, …); assay: BLI; 25 C, immobilised biotin-aptamer, DPBS Ca/Mg + 5 mM MgCl2 + BSA/tRNA/ssDNA; settings: tags: His-tag; ACROBiosystems IT1-H52W1; label: biotin, FAM or Cy5; motif on top of a stem formed by flanking constant regions (predicted)
Protocol: as §1, §2

[6] = molecular target: Integrin alpha4beta7, recombinant heterodimer (Homo sapiens, UniProt P13612;P26010 P13612:34-977,P26010:20-723); assay: BLI; negative control aptamer, 100 nM protein; settings: tags: His-tag; ACROBiosystems IT7-H52W4; label: biotin
Chain of Integrin alpha4beta7, recombinant heterodimer (P13612 34-977, chain 1 of 2): as the sequence (P13612 34-977, chain 1 of 2) above
Chain of Integrin alpha4beta7, recombinant heterodimer (P26010 20-723, chain 2 of 2): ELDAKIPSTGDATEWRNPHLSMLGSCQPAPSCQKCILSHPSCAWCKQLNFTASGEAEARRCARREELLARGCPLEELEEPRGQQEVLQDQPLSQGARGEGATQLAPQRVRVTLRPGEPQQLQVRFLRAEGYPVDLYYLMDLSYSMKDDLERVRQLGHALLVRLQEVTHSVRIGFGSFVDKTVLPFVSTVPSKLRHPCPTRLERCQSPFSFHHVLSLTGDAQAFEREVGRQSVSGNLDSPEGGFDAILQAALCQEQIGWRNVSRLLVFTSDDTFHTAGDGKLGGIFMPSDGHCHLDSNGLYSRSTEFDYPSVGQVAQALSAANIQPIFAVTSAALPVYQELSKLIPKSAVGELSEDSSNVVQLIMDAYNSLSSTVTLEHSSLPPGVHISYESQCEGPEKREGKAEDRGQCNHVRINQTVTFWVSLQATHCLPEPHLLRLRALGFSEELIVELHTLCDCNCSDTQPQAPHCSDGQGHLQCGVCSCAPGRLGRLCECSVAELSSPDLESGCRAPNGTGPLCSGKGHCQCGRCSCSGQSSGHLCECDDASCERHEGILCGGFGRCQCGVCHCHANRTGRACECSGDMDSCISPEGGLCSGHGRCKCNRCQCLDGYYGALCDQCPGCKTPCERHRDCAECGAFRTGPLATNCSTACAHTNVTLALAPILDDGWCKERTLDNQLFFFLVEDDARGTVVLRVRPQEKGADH
Protocol: as §1, with “each. Afterwards, aptamer-loaded sensors were associated with His-tagged human α4β1 (IT1-H52W1, ACROBiosystems of Beijing, China) or His-tagged human α4β7 (IT7-H52W4, ACROBiosystems) at concentrations and times indicated in the figures and captions. Lastly, sensors were transferred to wells containing buffer alone for dissociation.” for “each.”, “constants. […]” for “constants.”

[7] = molecular target: T2, Integrin alpha4beta1 (VLA-4, …); assay: BLI; negative control aptamer, 100 nM protein; settings: tags: His-tag; ACROBiosystems IT1-H52W1; label: biotin
Protocol: as §1, with “each. Afterwards, aptamer-loaded sensors were associated with His-tagged human α4β1 (IT1-H52W1, ACROBiosystems of Beijing, China) or His-tagged human α4β7 (IT7-H52W4, ACROBiosystems) at concentrations and times indicated in the figures and captions. Lastly, sensors were transferred to wells containing buffer alone for dissociation.” for “each.”, “constants. […]” for “constants.”

[8] = molecular target: T1, Integrin alpha4beta1 on Jurkat cells …; assay: competition; 50% displacement of 20 nM Cy5-HR7A1 on Jurkat cells; settings: tags: endogenous, ATCC cell line; label: Cy5
Protocol: as §3

[9] = molecular target: T1, Integrin alpha4beta1 on Jurkat cells …; assay: flow; apparent, 4 C; settings: tags: endogenous, ATCC cell line
Protocol: (§4) Binding assay: Jurkat cells were washed with DPBS and incubated with Zombie Violet (1:500, 10⁷ cells/mL, BioLegend) in DPBS for live/dead staining for 15 min at room temperature. After live/dead staining, cells were washed with aptamer washed buffer supplemented with 1% BSA to quench the remaining dye and aliquoted in a 96-well plate at 1-2e5 cells/well. For aptamer staining, cells were incubated with annealed aptamers at the indicated concentrations in 100 μL binding buffer (aptamer wash buffer supplemented with 1% BSA and 0.1 mg/ml yeast RNA) for 20-30 min at 4° C. For binding analysis at different temperatures, aptamers (diluted in binding buffer) and cells were separately incubated at the indicated temperatures for 20 min for equilibration. The equilibrated aptamer solutions were then added to the cells and allowed to incubate for 20-30 min. After incubation, cells were washed 2 times with 200 μL aptamer wash buffer supplemented with 1% BSA, resuspended in 200 μL aptamer wash buffer supplemented with 1% BSA and 0.2% PFA, and analyzed on an Attune NxT cytometer.

[10] = molecular target: T1, Integrin alpha4beta1 on Jurkat cells …; assay: flow; apparent, 4 C; better retained binding at 20 and 37 C than parent; settings: tags: endogenous, ATCC cell line
Protocol: as §4

T1 sequence (P13612 34-1032, chain 1 of 2): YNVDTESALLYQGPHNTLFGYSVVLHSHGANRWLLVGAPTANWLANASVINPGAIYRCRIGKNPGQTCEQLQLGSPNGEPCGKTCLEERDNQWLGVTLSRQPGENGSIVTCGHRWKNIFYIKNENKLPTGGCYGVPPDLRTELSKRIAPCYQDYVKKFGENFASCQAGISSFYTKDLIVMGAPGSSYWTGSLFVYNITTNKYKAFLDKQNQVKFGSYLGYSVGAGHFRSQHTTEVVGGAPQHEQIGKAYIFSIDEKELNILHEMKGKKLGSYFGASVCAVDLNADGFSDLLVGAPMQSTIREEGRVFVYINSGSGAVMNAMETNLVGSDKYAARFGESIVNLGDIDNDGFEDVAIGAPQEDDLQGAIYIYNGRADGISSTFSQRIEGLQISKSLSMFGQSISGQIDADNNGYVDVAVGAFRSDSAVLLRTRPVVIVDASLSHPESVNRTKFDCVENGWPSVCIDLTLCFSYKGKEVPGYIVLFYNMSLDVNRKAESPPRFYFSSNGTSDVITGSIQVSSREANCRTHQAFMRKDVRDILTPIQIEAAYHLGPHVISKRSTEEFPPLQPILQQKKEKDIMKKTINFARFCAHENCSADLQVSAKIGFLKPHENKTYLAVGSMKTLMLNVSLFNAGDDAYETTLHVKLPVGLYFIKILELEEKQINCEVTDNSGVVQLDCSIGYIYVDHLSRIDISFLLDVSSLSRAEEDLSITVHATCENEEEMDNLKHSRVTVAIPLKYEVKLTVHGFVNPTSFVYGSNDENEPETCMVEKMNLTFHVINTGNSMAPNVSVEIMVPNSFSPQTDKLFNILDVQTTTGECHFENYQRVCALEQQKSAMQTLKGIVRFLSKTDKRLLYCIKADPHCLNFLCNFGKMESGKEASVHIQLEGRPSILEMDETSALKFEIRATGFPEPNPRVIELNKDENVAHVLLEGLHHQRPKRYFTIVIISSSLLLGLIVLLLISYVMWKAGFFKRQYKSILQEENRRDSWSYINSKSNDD
T1 sequence (P05556 21-798, chain 2 of 2): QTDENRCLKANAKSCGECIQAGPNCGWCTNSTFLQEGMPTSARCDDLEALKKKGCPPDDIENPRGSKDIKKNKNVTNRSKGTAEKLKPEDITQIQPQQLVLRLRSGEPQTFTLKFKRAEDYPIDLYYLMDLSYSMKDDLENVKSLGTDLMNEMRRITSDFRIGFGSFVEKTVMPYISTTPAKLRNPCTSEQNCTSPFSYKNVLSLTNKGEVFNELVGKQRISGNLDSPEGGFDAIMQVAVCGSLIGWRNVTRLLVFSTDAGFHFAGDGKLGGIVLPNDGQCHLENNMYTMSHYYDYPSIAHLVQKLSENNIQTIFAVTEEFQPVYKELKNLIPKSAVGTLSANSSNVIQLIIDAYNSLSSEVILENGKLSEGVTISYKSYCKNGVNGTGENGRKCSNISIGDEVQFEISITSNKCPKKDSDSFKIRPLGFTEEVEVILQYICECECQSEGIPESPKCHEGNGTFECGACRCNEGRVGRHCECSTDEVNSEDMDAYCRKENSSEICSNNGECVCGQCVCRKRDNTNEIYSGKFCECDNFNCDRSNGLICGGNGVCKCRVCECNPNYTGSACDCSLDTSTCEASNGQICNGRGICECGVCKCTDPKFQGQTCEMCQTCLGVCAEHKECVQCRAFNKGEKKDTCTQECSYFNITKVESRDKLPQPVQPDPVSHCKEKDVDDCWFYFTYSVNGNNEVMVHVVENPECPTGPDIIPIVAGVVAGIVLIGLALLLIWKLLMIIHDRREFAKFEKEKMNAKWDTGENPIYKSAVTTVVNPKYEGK

CTCCTTACTAGATGCAACCCGACTACTAACGTCGTAAGAGAG (ssDNA) [HR7A1.Tr2]
IC50 [1]: 3 nM
Kd [2]: 9.89 nM

B1: HR7A1.Tr1 (ssDNA)
DNA: CAGCAAACCTGACCTCCTTACTAGATGCAACCCGACTACTAACGTCGTAAGAGAG
Kd [2]: 7.74 nM

B2: HR7A1 (ssDNA)
DNA: ATCCAGAGTGACGCAGCAAACCTGACCTCCTTACTAGATGCAACCCGACTACTAACGTCGTAAGAGAGCCTGGACACGGTGGCTTAGT
IC50 [3]: 0.3 fold excess
Kd [4]: 5.2 nM
Kd [5]: 6.28 nM

B3: CD8.A3 (ssDNA)
DNA: ATCCAGAGTGACGCAGCAACAGAGGTGTAGAAGTACACGTGAACAAGCTTGAAATTGTCTCTGACAGAGGTGGACACGGTGGCTTAGT
binding result [6]: no binding
binding result [7]: no binding

B4: Sgc4f (ssDNA)
DNA: ATCACTTATAACGAGTGCGGATGCAAACGCCAGACAGGGGGACAGGAGATAAGTGA
IC50 [8]: > 3 fold excess

CGCGCCGTACTAGATGCAACCCGACTACTAACGTCGTACGAGCGCG (ssDNA, PS at three terminal linkages of each end: C*G*C*GCC...GAGC*G*C*G) [HR7A1.Tr2.S2E2.PS3]
Kd [9]: 3.2 nM

CGCGCCGTACTAGATGCAACCCGACTACTAACGTCGTACGAGCGCG (ssDNA, PS at * : C*G*CGCCGTA*CTA*GA*TGCA*A*CCCGACTACTAA*CGTCGTACGAGCG*C*G) [HR7A1.Tr2.S2E2.PSA]
Kd [10]: 9.6 nM

— US20250020645, “A4B1 BINDING APTAMERS” (University of Washington, published 2025)
